# T1: Human macrophage migration inhibitory factor (MIF) (human), P14174
# T1 chain: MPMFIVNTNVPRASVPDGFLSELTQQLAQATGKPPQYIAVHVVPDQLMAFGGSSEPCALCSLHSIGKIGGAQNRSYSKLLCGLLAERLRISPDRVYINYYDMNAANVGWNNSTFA
# B1: Human macrophage migration inhibitory factor (MIF), P14174 1-115 (natural protein)
# chain: T1 chain
# Biological target: T1, Human macrophage migration inhibitory …
# Assay: crystal structure; MIF (~18 mg/mL) co-crystallised with the small molecule T-614 at 1:3 protein-inhibitor molar ratio; hanging drop vapor diffusion; 20 mM Tris HCl pH 7.5, 2 M (NH4)2SO4, 3% 2-propanol; 20 C
# Conditions: remark: other sources report otherwise
binder,measurement,value
B1,stoichiometry N,3

# — article PMC10976746, “Iguratimod, an allosteric inhibitor of macrophage migration inhibitory factor (MIF), prevents mortality and oxidative stress in a murine model of acetaminophen overdose” (Molecular Medicine, 2024)
